This note sets out measurements from paper PMC12395300 (ACS Central Science, 2025).

In this assay the target is PD1 (as used in the ELISA) (Mus musculus, UniProt Q02242).
PD1 (as used in the ELISA), sequence (Q02242 25-288): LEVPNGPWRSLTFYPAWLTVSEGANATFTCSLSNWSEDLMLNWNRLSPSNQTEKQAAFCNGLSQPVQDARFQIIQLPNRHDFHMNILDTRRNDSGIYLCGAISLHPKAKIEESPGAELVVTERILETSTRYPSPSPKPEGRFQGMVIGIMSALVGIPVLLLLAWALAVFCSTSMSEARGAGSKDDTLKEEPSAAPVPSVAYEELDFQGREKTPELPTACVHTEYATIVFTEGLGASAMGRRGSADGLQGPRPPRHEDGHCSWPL

B1: anti-hPD1 (pembrolizumab) (antibody, V domains shown)
VH: QVQLVQSGVEVKKPGASVKVSCKASGYTFTNYYMYWVRQAPGQGLEWMGGINPSNGGTNFNEKFKNRVTLTTDSSTTTAYMELKSLQFDDTAVYYCARRDYRFDMGFDYWGQGTTVTVSS
VL: EIVLTQSPATLSLSPGERATLSCRASKGVSTSGYSYLHWYQQKPGQAPRLLIYLASYLESGVPARFSGSGSGTDFTLTISSLEPEDFAVYYCQHSRDLPLTFGGGTKVEIK
In the case of B1, the binding result is listed as “binds”.
